One molecule from PMC5703284 (Proceedings of the National Academy of Sciences of the …, 2017) can be followed below.

The target in one assay is human ActRIIA-Fc protein (human, UniProt P27037).
A further assay has as its target T1, human ActRIIB-Fc protein (human, UniProt Q13705).
T1 sequence: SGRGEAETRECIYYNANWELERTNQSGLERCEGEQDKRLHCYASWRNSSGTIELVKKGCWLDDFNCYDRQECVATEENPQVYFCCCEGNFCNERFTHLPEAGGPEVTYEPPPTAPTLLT

Sequence of human ActRIIA-Fc protein (P27037 20-135): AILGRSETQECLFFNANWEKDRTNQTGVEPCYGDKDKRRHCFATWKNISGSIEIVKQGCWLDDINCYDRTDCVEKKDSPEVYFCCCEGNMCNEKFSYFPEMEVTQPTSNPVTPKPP

B1: activin A (ligand)
chain: GLECDGKVNICCKKQFFVSFKDIGWNDWIIAPSGYHANYCEGECPSHIAGTSGSSLSFHSTVINHYRMRGHSPFANLKSCCVPTKLRPMSMLYYDDGQNIIKKDIQNMIVEECGCS
For the molecule B1, the Kd – broadly, the concentration at which binding is half-saturated – in the assay with human ActRIIA-Fc protein came out at 5.3 pM; with human ActRIIB-Fc protein, 6.5 pM.
